# US20220298218A1 (ANTAG THERAPEUTICS, published 2022)
# *1 amine or outer side, *2 acyl side, *3 side chain or, on linkers, in order; H or OH if unused. Where no end group is shown, it is not given here. Side-chain parts run from the residue outwards. The star is where a group is joined. C18 diacid = O=C(O)CCCCCCCCCCCCCCCCC(=O)*; C16 diacid = O=C(O)CCCCCCCCCCCCCCC(=O)*; γGlu = O=C(O)[C@H](CCC(=O)[*:2])N[*:1]; AEEA = NCCOCCOCC(=O)O
# T1: human GIP receptor (human, UniProt P48546 22-466)
# T1 sequence (looked up): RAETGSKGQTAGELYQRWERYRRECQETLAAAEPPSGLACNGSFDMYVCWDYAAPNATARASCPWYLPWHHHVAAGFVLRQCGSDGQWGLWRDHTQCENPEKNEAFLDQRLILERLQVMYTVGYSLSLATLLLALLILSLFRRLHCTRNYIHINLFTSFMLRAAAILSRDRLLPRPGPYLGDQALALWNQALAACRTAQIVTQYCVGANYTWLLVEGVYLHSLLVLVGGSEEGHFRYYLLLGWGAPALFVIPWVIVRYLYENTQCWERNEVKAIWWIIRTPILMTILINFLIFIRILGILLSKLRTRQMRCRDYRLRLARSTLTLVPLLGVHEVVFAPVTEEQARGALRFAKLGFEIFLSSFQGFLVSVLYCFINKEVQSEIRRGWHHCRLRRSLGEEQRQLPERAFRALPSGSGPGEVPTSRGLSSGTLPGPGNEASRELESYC
# Target: T1, human GIP receptor
# Assay: cell-based or functional assay
Binder,cAMP antagonism [nM],cAMP antagonism % inhib [%],cAMP antagonism log [log M]
TFISDYK([AEEA-AEEA-AEEA-γGlu-C18 diacid])IAMDRIHQQDFVNWLLAQRGRRNDW-OH (N-terminus assumed; SMILES CC[C@H](C)[C@H](NC(=O)[C@H](CCCCNC(=O)COCCOCCNC(=O)COCCOCCNC(=O)COCCOCCNC(=O)CC[C@H](NC(=O)CCCCCCCCCCCCCCCCC(=O)O)C(=O)O)NC(=O)[C@H](Cc1ccc(O)cc1)NC(=O)[C@H](CC(=O)O)NC(=O)[C@H](CO)NC(=O)[C@@H](NC(=O)[C@H](Cc1ccccc1)NC(=O)[C@@H](N)[C@@H](C)O)[C@@H](C)CC)C(=O)N[C@@H](C)C(=O)N[C@@H](CCSC)C(=O)N[C@@H](CC(=O)O)C(=O)N[C@@H](CCCNC(=N)N)C(=O)N[C@H](C(=O)N[C@@H](Cc1c[nH]cn1)C(=O)N[C@@H](CCC(N)=O)C(=O)N[C@@H](CCC(N)=O)C(=O)N[C@@H](CC(=O)O)C(=O)N[C@@H](Cc1ccccc1)C(=O)N[C@H](C(=O)N[C@@H](CC(N)=O)C(=O)N[C@@H](Cc1c[nH]c2ccccc12)C(=O)N[C@@H](CC(C)C)C(=O)N[C@@H](CC(C)C)C(=O)N[C@@H](C)C(=O)N[C@@H](CCC(N)=O)C(=O)N[C@@H](CCCNC(=N)N)C(=O)NCC(=O)N[C@@H](CCCNC(=N)N)C(=O)N[C@@H](CCCNC(=N)N)C(=O)N[C@@H](CC(N)=O)C(=O)N[C@@H](CC(=O)O)C(=O)N[C@@H](Cc1c[nH]c2ccccc12)C(=O)O)C(C)C)[C@@H](C)CC) [AT430],153,100,-6.8
TFISDYK([AEEA-AEEA-γGlu-C16 diacid])IAMDRIHQQDFVNWLLAQRGPSSGAPPPS-OH (N-terminus assumed; SMILES CC[C@H](C)[C@H](NC(=O)[C@H](CCCCNC(=O)COCCOCCNC(=O)COCCOCCNC(=O)CC[C@H](NC(=O)CCCCCCCCCCCCCCC(=O)O)C(=O)O)NC(=O)[C@H](Cc1ccc(O)cc1)NC(=O)[C@H](CC(=O)O)NC(=O)[C@H](CO)NC(=O)[C@@H](NC(=O)[C@H](Cc1ccccc1)NC(=O)[C@@H](N)[C@@H](C)O)[C@@H](C)CC)C(=O)N[C@@H](C)C(=O)N[C@@H](CCSC)C(=O)N[C@@H](CC(=O)O)C(=O)N[C@@H](CCCNC(=N)N)C(=O)N[C@H](C(=O)N[C@@H](Cc1c[nH]cn1)C(=O)N[C@@H](CCC(N)=O)C(=O)N[C@@H](CCC(N)=O)C(=O)N[C@@H](CC(=O)O)C(=O)N[C@@H](Cc1ccccc1)C(=O)N[C@H](C(=O)N[C@@H](CC(N)=O)C(=O)N[C@@H](Cc1c[nH]c2ccccc12)C(=O)N[C@@H](CC(C)C)C(=O)N[C@@H](CC(C)C)C(=O)N[C@@H](C)C(=O)N[C@@H](CCC(N)=O)C(=O)N[C@@H](CCCNC(=N)N)C(=O)NCC(=O)N1CCC[C@H]1C(=O)N[C@@H](CO)C(=O)N[C@@H](CO)C(=O)NCC(=O)N[C@@H](C)C(=O)N1CCC[C@H]1C(=O)N1CCC[C@H]1C(=O)N1CCC[C@H]1C(=O)N[C@@H](CO)C(=O)O)C(C)C)[C@@H](C)CC) [AT443],171,100,-6.8
TFISDYK([AEEA-AEEA-γGlu-C18 diacid])IAMDRIHQQDFVNWLLAQRGPSSGAPPPS-OH (N-terminus assumed; SMILES CC[C@H](C)[C@H](NC(=O)[C@H](CCCCNC(=O)COCCOCCNC(=O)COCCOCCNC(=O)CC[C@H](NC(=O)CCCCCCCCCCCCCCCCC(=O)O)C(=O)O)NC(=O)[C@H](Cc1ccc(O)cc1)NC(=O)[C@H](CC(=O)O)NC(=O)[C@H](CO)NC(=O)[C@@H](NC(=O)[C@H](Cc1ccccc1)NC(=O)[C@@H](N)[C@@H](C)O)[C@@H](C)CC)C(=O)N[C@@H](C)C(=O)N[C@@H](CCSC)C(=O)N[C@@H](CC(=O)O)C(=O)N[C@@H](CCCNC(=N)N)C(=O)N[C@H](C(=O)N[C@@H](Cc1c[nH]cn1)C(=O)N[C@@H](CCC(N)=O)C(=O)N[C@@H](CCC(N)=O)C(=O)N[C@@H](CC(=O)O)C(=O)N[C@@H](Cc1ccccc1)C(=O)N[C@H](C(=O)N[C@@H](CC(N)=O)C(=O)N[C@@H](Cc1c[nH]c2ccccc12)C(=O)N[C@@H](CC(C)C)C(=O)N[C@@H](CC(C)C)C(=O)N[C@@H](C)C(=O)N[C@@H](CCC(N)=O)C(=O)N[C@@H](CCCNC(=N)N)C(=O)NCC(=O)N1CCC[C@H]1C(=O)N[C@@H](CO)C(=O)N[C@@H](CO)C(=O)NCC(=O)N[C@@H](C)C(=O)N1CCC[C@H]1C(=O)N1CCC[C@H]1C(=O)N1CCC[C@H]1C(=O)N[C@@H](CO)C(=O)O)C(C)C)[C@@H](C)CC) [AT445],47,85,-7.3
TFISDYK([AEEA-AEEA-AEEA-γGlu-C16 diacid])IAMDRIHQQDFVNWLLAQRGPSSGAPPPS-OH (N-terminus assumed; SMILES CC[C@H](C)[C@H](NC(=O)[C@H](CCCCNC(=O)COCCOCCNC(=O)COCCOCCNC(=O)COCCOCCNC(=O)CC[C@H](NC(=O)CCCCCCCCCCCCCCC(=O)O)C(=O)O)NC(=O)[C@H](Cc1ccc(O)cc1)NC(=O)[C@H](CC(=O)O)NC(=O)[C@H](CO)NC(=O)[C@@H](NC(=O)[C@H](Cc1ccccc1)NC(=O)[C@@H](N)[C@@H](C)O)[C@@H](C)CC)C(=O)N[C@@H](C)C(=O)N[C@@H](CCSC)C(=O)N[C@@H](CC(=O)O)C(=O)N[C@@H](CCCNC(=N)N)C(=O)N[C@H](C(=O)N[C@@H](Cc1c[nH]cn1)C(=O)N[C@@H](CCC(N)=O)C(=O)N[C@@H](CCC(N)=O)C(=O)N[C@@H](CC(=O)O)C(=O)N[C@@H](Cc1ccccc1)C(=O)N[C@H](C(=O)N[C@@H](CC(N)=O)C(=O)N[C@@H](Cc1c[nH]c2ccccc12)C(=O)N[C@@H](CC(C)C)C(=O)N[C@@H](CC(C)C)C(=O)N[C@@H](C)C(=O)N[C@@H](CCC(N)=O)C(=O)N[C@@H](CCCNC(=N)N)C(=O)NCC(=O)N1CCC[C@H]1C(=O)N[C@@H](CO)C(=O)N[C@@H](CO)C(=O)NCC(=O)N[C@@H](C)C(=O)N1CCC[C@H]1C(=O)N1CCC[C@H]1C(=O)N1CCC[C@H]1C(=O)N[C@@H](CO)C(=O)O)C(C)C)[C@@H](C)CC) [AT444],153,100,-6.8
TFISDYK([AEEA-AEEA-AEEA-γGlu-C16 diacid])IAMDRIHQQDFVNWLLAQRGRRNDW-OH (N-terminus assumed; SMILES CC[C@H](C)[C@H](NC(=O)[C@H](CCCCNC(=O)COCCOCCNC(=O)COCCOCCNC(=O)COCCOCCNC(=O)CC[C@H](NC(=O)CCCCCCCCCCCCCCC(=O)O)C(=O)O)NC(=O)[C@H](Cc1ccc(O)cc1)NC(=O)[C@H](CC(=O)O)NC(=O)[C@H](CO)NC(=O)[C@@H](NC(=O)[C@H](Cc1ccccc1)NC(=O)[C@@H](N)[C@@H](C)O)[C@@H](C)CC)C(=O)N[C@@H](C)C(=O)N[C@@H](CCSC)C(=O)N[C@@H](CC(=O)O)C(=O)N[C@@H](CCCNC(=N)N)C(=O)N[C@H](C(=O)N[C@@H](Cc1c[nH]cn1)C(=O)N[C@@H](CCC(N)=O)C(=O)N[C@@H](CCC(N)=O)C(=O)N[C@@H](CC(=O)O)C(=O)N[C@@H](Cc1ccccc1)C(=O)N[C@H](C(=O)N[C@@H](CC(N)=O)C(=O)N[C@@H](Cc1c[nH]c2ccccc12)C(=O)N[C@@H](CC(C)C)C(=O)N[C@@H](CC(C)C)C(=O)N[C@@H](C)C(=O)N[C@@H](CCC(N)=O)C(=O)N[C@@H](CCCNC(=N)N)C(=O)NCC(=O)N[C@@H](CCCNC(=N)N)C(=O)N[C@@H](CCCNC(=N)N)C(=O)N[C@@H](CC(N)=O)C(=O)N[C@@H](CC(=O)O)C(=O)N[C@@H](Cc1c[nH]c2ccccc12)C(=O)O)C(C)C)[C@@H](C)CC) [AT428],296,90,-6.5
TFISDYK([AEEA-AEEA-AEEA-γGlu-C18 diacid])IAMDRIHQQDFVNWLLAQRGPSSGAPPPS-OH (N-terminus assumed; SMILES CC[C@H](C)[C@H](NC(=O)[C@H](CCCCNC(=O)COCCOCCNC(=O)COCCOCCNC(=O)COCCOCCNC(=O)CC[C@H](NC(=O)CCCCCCCCCCCCCCCCC(=O)O)C(=O)O)NC(=O)[C@H](Cc1ccc(O)cc1)NC(=O)[C@H](CC(=O)O)NC(=O)[C@H](CO)NC(=O)[C@@H](NC(=O)[C@H](Cc1ccccc1)NC(=O)[C@@H](N)[C@@H](C)O)[C@@H](C)CC)C(=O)N[C@@H](C)C(=O)N[C@@H](CCSC)C(=O)N[C@@H](CC(=O)O)C(=O)N[C@@H](CCCNC(=N)N)C(=O)N[C@H](C(=O)N[C@@H](Cc1c[nH]cn1)C(=O)N[C@@H](CCC(N)=O)C(=O)N[C@@H](CCC(N)=O)C(=O)N[C@@H](CC(=O)O)C(=O)N[C@@H](Cc1ccccc1)C(=O)N[C@H](C(=O)N[C@@H](CC(N)=O)C(=O)N[C@@H](Cc1c[nH]c2ccccc12)C(=O)N[C@@H](CC(C)C)C(=O)N[C@@H](CC(C)C)C(=O)N[C@@H](C)C(=O)N[C@@H](CCC(N)=O)C(=O)N[C@@H](CCCNC(=N)N)C(=O)NCC(=O)N1CCC[C@H]1C(=O)N[C@@H](CO)C(=O)N[C@@H](CO)C(=O)NCC(=O)N[C@@H](C)C(=O)N1CCC[C@H]1C(=O)N1CCC[C@H]1C(=O)N1CCC[C@H]1C(=O)N[C@@H](CO)C(=O)O)C(C)C)[C@@H](C)CC) [AT446],152,100,-6.8
